# Experimental data taken from US12497460B2, “Anti-MSR1 antibodies and methods of use thereof” (REGENERON PHARMACEUTICALS, INC., priority 2018, dated 2025).
# Residue numbers refer to the chain shown, from its start. In names and notes the source's numbering stands.
# B1: H1H27734P-N297Q: one of "Twelve anti-MSR1 antibodies"; "made with an N297Q single point mutation in human Fcγ portion" (antibody, V domains shown)
# VH: EVQLVESRGGLVQPGGSLRLSCAASGFTFSSYAMSWVRQAPGKGLEWVSAISGSGGSTFYADSVKGRFTISRDNSKNTVYLQMNSLRAEDTAVYYCAKALVLRFLEWLGDYWGQGTLVTVSS
# VL: DIQMTQSPSTLSASVGDRVTITCRASQSISSWLAWFQQKPGKAPKLLIYKASSLESGVPSRFSGSGSGTEFTLTISSLQPDDFATYYCQQYKSYWTFGQGTKVEIKR
# B2: H1H21227N-N297Q: "modified versions of 21227N (H1H21227N-N297Q and H1H21227N-N297D)"; anti-MSR1 antibody "with a N297Q single point mutation" (antibody, V domains shown)
# VH: QVQLVQSGAEVKKPGASVKVSCKVSGYTLTELSIHWVRQVPGKGLEWMGGFDPEEGETIFAQEFRDRVTLTEDTSPDTAYMELSSLKSEDAAVYYCTTPRYCNNGICYDYWGQGTLVTVSS
# VL: DIQMTQSPSSLSASVGDRVTITCRASQSISNYLNWYQQKPGKAPKLLIYTASSLQSGVPSRFSGSGSGTDFTLTISSLQTEDFATYYCQQSYSNFPITFGQGTRLEIKR
# B3: H1H21231N-N297Q: modified version of "21231N (H1H21231N-N297Q) anti-MSR1 antibodies" with "a N297Q single point mutation" (antibody, V domains shown)
# VH: EVQLVESGGGLVQPGGSLRLSCAASGFTFSDHYMDWVRQAPGKGLEWVGRTRNKANSHTTEYTASVTGRFTISRDDSRNSLYLQMNSLKTEDTAVYYCVRAGIIGTLFDYWGQGTLVTVSS
# VL: B2 VL with S7F, N31S, Y32F, Y36F, L46F, T50A, T80P, N94S, F95P
# B4: H1H27739P-N297Q: anti-MSR1 antibody "made with an N297Q single point mutation in human Fcγ portion" (antibody, V domains shown)
# VH: EVQLVESGGGLVQPGGSLRLSCTASGFTFSSYAMSWVRQAPGKGLEWVSAISGTGSSTYFTDSVKGRFAISRDNSKNTLYLQMNSLRAEDTAVYYCAKDGEWLSTVTLFDYWGQGTLVTVSS
# VL: EIVMTQSPATLSVSPGERATLSCRASQSVSSNLAWYQQKPGQAPRLLIYGASTRATGIPARFSGSGSGTDFTLTISSLQSEDFALYYCQQYFIWPPHPTFGPGTKVDIKR
# Experiments:
# [1] = target: T1, MSR1-mediated Dil-AcLDL uptake in HEK293.Myc.hMSR1 cells (Homo sapiens, UniProt P21757); experiment: Ligand uptake assay, Dil-AcLDL; type: cell-based; details: 10 μg/mL Dil-AcLDL; for Dil-Acetylated LDL % Inhibition: maximum inhibition
# T1 construct: expressed in transfected cells; host or cells: HEK293 (lentiviral transduction, hygromycin selection)
# T1 sequence (P21757 1-451): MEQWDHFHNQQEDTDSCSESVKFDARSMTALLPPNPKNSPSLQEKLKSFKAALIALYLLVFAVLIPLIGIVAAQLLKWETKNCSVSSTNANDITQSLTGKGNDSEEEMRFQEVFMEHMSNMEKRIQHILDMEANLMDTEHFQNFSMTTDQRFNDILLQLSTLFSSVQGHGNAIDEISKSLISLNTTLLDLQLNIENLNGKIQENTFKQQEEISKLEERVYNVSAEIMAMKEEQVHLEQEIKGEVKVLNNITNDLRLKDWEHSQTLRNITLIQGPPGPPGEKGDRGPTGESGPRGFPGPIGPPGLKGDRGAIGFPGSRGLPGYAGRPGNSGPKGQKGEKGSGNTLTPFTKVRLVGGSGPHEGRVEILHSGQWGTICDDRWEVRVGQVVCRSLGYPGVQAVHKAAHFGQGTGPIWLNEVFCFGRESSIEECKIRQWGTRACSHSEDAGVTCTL
# Protocol: A bioassay was generated to assess the ability of the exemplary anti-MSR1 antibodies to regulate the uptake of certain MSR1 ligands.
# Generation of MSR1-expressing cell lines for assay. […] The resulting cell line, referred to here as “HEK293.Myc.hMSR1”, was selected and maintained in DMEM containing 10% FIBS, NEAA, penicillin/streptomycin, L-glutamine, and 100 μg/mL hygromycin.
# Ligand uptake assay. […] After 30 minutes, either oxidized or acetylated low-density lipoprotein (LDL) labeled with 1,1′dioctadecyl-3,3,3′,3′-tetramethylindocarbocyanine perchlorate (referred to as “Dil-OxLDL” or “Dil-AcLDL,” respectively) was added to the cells at a constant concentration of 10 μg/mL. […] Results were analyzed using nonlinear regression (4-parameter logistics) with the Prism 7 program to obtain EC50 and IC50 values. The percentage of inhibition was calculated with the Relative Fluorescent Unit (RFU) values by using the following equation: […]
# In the equation, “RFUBaseline” is the fluorescence value from the cells treated with 10 μg/mL ligand without antibodies, “RFUInhibition” is the minimum fluorescence value with for a particular antibody with 10 μg/mL ligand, and “RFUBackground” is the fluorescence value from cells without any ligand or antibodies.
# [2] = system: B16F10.9 cells (MSR1 negative); experiment: Flow cytometry binding, MSR1 negative cells; type: cell-based, mouse; details: 10 μg/mL antibody
# Protocol: Relative cell surface binding of the anti-MSR1 antibodies to mouse MSR1 expressing cells was determined by flow cytometry using MSR1 positive RAW264.7 cells (ATCC, Catalog #TIB-71) and MSR1 negative B16F10.9 cells (Lin et al. 1998. PNAS 95:8829-8834). For the assay, cells were plated in PBS without calcium and magnesium (VWR Cat #45000-446) and 2% FBS (Saradigm Cat #1500-500) (Staining Buffer) in 96 well V-bottom plates (Axygen Scientific, Cat #P-96-450-V-C-S). To block binding to Fc receptors, RAW264.7 cells were incubated for 30 minutes at 4° C. with 500 μg/mL mouse IgG (Jackson ImmunoResearch, Cat #015-000-003) diluted in staining buffer, while B16F10.9 cells remained in staining buffer. Following Fc receptor blocking, 10 μg/mL of anti-MSR1 antibodies or an isotype control antibody were added to the cells and were subsequently incubated for 30 minutes on ice. For a positive control, a commercial anti-mouse MSR1 (Sino Biological, Cat #50129-R004) antibody was used, while a rabbit IgG antibody (Thermo Scientific, Cat #26102) was used as a negative control. […] Cells were subsequently washed and fixed using a 50% solution of Cytofix (BD Biosciences, Cat #554655) diluted in PBS. […] The signal to noise (S/N) was determined by calculating the ratio of the anti-MSR1 antibodies or the control antibodies MFI to the unstained sample MFI (Table 11).
# [3] = target: T2, His9-hMSR1 (human MSR1 extracellular domain) (Homo sapiens, UniProt P21757); experiment: Biacore T200 surface plasmon resonance binding kinetics of anti-MSR1 antibody-drug conjugates and parental antibodies; details: 25° C.; for ka: Table 19, antibody-LXR ADCs and unconjugated antibodies; for kd: Table 19, * = no dissociation observed, kd manually fixed at 1.00E−05
# T2 construct: human MSR1 extracellular domain expressed with a N-terminal nonahistidine tag; His9 (nonahistidine) (N); purchased R&D Systems 2708-MS
# T2 sequence (P21757 77-451 limits assumed): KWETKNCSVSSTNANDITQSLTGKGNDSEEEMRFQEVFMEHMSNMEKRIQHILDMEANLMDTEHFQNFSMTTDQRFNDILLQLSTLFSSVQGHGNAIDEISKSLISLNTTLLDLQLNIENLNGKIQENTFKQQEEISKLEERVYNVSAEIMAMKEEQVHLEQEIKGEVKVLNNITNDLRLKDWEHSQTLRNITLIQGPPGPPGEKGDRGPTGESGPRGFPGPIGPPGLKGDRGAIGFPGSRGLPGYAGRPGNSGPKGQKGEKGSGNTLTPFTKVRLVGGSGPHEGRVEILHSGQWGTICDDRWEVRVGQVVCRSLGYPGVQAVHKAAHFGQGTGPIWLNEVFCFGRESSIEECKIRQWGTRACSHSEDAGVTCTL
# Protocol: The MSR1 antibodies disclosed herein were conjugated to various liver X receptor (LXR) payloads or various steroid payloads. This example describes how equilibrium dissociation constant (KD) values for human MSR1 reagents binding to human anti-MSR1 antibody-drug conjugates and their corresponding unconjugated parental antibodies were determined using a real-time surface plasmon resonance-based Biacore T200 biosensor.
# All binding studies were performed in 10 mM HEPES, 300 mM NaCl, 3 mM EDTA, and 0.05% v/v Surfactant Tween-20, pH 7.4 (HBS-ET) running buffer at 25° C. The Biacore CM4 sensor chip surface was first derivatized by amine coupling with the goat anti-human Fcγ specific polyclonal antibody (Jackson ImmunoResearch Laboratories, Cat #BR-1008-39) to capture anti-MSR1 monoclonal antibodies. Binding studies were performed on human MSR1 extracellular domain expressed with a N-terminal nonahistidine tag (His9-hMSR1; R&D Systems, Cat #2708-MS).
# The association rate (ka) and dissociation rate (kd) were determined by fitting the real-time binding sensorgrams to a 1:1 binding model with mass transport limitation using Scrubber 2.0c curve-fitting software. Binding dissociation equilibrium constant (KD) and dissociative half-life (t½) were calculated from the kinetic rates as: […]
# Binding kinetics parameters for His9-hMSR1 binding to different anti-MSR1 antibody-LXR ADCs and their unconjugated parental antibodies at 25° C. are shown in Table 19. “LP1” represents a linker-payload for which the payload structure is provided in Example 11.
# The binding studies were repeated with anti-MSR1 antibody H1H21234-N297Q and steroid linker payloads (LPs). “LP3” represents a linker-payload for which the structure is provided in Example 23, and “LP13” represents a linker-payload for which the structure is provided in Example 24.
Molecule,Dil-Acetylated LDL IC50 [1],maximum inhibition of Dil-AcLDL uptake [1],Dil-Acetylated LDL % Inhibition [1],B16F10.9 MFI [2],ka [3],kd [3],IC50 ([1]; read-out: Dil-Acetylated LDL IC50),B16F10.9 S/N [2]
B1,no inhibition,no inhibition,no inhibition,4505,77200 M⁻¹ s⁻¹,0.000596 s⁻¹,,
B2,,,65%,3287,,,2.4 nM,1
B3,,,62%,3374,,,,
B4,no inhibition,no inhibition,no inhibition,3580,119000 M⁻¹ s⁻¹,0.000555 s⁻¹,,
